{
  "source": "patent US20050147555A1",
  "about": "(BRACCO SUISSE, published 2005)",
  "binders": {"B1": {"name": "P6-XB (4X) on neutravidin-HRP (other)", "peptide": "Ac-GDSRVCWEDSWGGEVCFRYDPGGGK([AEEA-AEEA-Biotin])-NH2", "modifications": "disulfide 6-16; also: four peptides bound to neutravidin-HRP", "notes": "Peptides held on the four biotin sites of neutravidin-HRP; also called tetrameric P6-XB; P6-XB Tetramer"}, "B2": {"name": "Head-to-head dimer of P9 and P10 (peptide)", "peptide 1": "AQEPEGYAYWEVITLYHEEDGDGG", "peptide 2": "AQAFPRFGGDDYWIQQYLRYTDGG", "modifications": "not fully specified; N-terminal amino group carries an NH-PEG4-CO linker and amino-oxyacetyl group, oxime-linked to the other chain; N-terminal amino group carries an NH-PEG4-CO linker and levulinyl group, oxime-linked to the other chain", "notes": "also called H-H dimer"}, "B3": {"name": "Tail-to-tail dimer of P9 and P10 (peptide)", "peptide 1": "Ac-AQEPEGYAYWEVITLYHEEDGDGGK-NH2", "peptide 2": "Ac-AQAFPRFGGDDYWIQQYLRYTDGGK-NH2", "modifications": "bridge I:25-II:25; not fully specified (bridges); printed as Ac-AQEPEGYAYWEVITLYHEEDGDGGK(Ac-AQAFPRFGGDDYWIQQYLRYTDGGK(—(O═)C(CH2CH2O)4CH2CH2NHC(═O)CH2CH2C(CH3)═NOCH2C(═O)NH(CH2CH2O)4CH2CH2C(═O)—)NH2)NH2; also: tail-to-tail dimer of two peptides joined through the Lys25 side chains", "notes": "also called T-T dimer; D31"}},
  "key": {"[1]": {"biological_target": "T1, KDR (VEGFR-2, Flk-1), full-length receptor on cells (human, UniProt P35968 20-1356)", "T1 construct": "whole, on cells; endogenous on HUVECs in the functional assays; also called VEGF receptor 2", "T1 sequence (P35968 20-1356)": "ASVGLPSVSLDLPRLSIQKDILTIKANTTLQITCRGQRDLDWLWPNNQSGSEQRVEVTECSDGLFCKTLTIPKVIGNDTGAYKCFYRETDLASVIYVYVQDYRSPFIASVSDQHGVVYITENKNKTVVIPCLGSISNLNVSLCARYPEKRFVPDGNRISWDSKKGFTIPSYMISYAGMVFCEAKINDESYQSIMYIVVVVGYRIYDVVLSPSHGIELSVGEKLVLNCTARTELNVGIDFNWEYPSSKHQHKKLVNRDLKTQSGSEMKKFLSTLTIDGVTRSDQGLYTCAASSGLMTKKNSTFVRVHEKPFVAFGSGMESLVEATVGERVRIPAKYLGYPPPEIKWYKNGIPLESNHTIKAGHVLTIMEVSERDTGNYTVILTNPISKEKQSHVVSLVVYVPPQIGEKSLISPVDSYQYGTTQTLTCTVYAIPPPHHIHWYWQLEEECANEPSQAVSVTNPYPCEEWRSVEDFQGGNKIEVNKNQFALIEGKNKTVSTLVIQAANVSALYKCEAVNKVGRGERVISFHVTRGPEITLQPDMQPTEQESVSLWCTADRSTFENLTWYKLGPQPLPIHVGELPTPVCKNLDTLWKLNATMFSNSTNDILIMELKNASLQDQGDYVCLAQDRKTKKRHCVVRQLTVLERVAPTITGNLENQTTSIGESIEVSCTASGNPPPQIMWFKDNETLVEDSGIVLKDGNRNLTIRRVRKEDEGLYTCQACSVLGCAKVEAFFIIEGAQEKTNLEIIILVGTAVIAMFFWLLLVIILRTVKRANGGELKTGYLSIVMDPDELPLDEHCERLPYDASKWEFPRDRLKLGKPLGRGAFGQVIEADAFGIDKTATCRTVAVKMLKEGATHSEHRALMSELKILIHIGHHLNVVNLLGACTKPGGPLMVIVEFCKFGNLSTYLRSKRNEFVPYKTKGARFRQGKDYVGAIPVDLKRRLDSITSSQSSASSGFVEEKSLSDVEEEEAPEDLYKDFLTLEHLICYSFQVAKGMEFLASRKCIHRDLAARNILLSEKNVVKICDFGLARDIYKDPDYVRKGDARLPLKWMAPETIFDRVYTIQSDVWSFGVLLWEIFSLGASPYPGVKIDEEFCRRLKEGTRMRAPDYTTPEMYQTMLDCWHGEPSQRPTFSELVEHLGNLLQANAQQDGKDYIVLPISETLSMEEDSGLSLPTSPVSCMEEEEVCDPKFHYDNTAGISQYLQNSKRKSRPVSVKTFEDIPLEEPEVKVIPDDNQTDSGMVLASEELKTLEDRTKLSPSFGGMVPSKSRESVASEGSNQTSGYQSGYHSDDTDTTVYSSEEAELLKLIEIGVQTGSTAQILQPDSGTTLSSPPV", "assay": "saturation binding of peptide/neutravidin-HRP complex, KDR- minus mock-transfected 293H cells", "method": "After incubation at room temperature, plates were transferred to 4° C. for another half-hour incubation. Subsequently, cells were washed five times with ice-cold M199 media and 1× with ice-cold PBS (in that order). After the final wash, 100 μL of ice cold TMB solution (KPL, cat. # 50-76-00) was added to each well, and each plate was incubated for 30 minutes at 37° C. in an air incubator.\nTherefore, absorbance on the Y-axis of FIG. 8 is differential absorbance (KDR minus mock) and not the absolute absorbance."}, "Soluble KDR receptor [2]": {"biological_target": "T2, Soluble KDR receptor (UniProt P35968 20-764, limits assumed)", "T2 construct": "Immobilised by amine coupling, RL 12721", "T2 sequence (P35968 20-764 limits assumed)": "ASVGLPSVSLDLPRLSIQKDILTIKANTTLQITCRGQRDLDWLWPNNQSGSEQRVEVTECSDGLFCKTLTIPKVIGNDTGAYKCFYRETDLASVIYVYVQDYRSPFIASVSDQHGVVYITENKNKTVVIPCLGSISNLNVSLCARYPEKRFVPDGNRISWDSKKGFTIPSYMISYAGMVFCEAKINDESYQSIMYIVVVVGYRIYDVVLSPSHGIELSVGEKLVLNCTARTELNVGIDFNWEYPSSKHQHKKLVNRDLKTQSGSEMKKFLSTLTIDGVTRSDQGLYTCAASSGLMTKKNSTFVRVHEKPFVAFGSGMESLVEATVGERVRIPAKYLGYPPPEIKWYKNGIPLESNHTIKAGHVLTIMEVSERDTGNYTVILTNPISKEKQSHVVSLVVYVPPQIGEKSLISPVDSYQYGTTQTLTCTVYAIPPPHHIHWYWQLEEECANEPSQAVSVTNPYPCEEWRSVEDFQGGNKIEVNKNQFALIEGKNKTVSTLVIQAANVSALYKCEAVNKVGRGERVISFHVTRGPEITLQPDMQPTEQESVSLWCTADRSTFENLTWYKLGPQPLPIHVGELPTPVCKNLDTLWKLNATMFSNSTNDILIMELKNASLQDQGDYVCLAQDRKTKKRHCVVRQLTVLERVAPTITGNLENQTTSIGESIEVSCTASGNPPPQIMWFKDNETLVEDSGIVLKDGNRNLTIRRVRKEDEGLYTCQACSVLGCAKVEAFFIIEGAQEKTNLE", "assay": "SPR (Biacore 3000), soluble KDR on CM5 chip; apparent KD", "method": "(§1) Soluble KDR receptor was cross-linked to the dextran surface of a CM5 sensor chip by the standard amine coupling procedure. […] For association, peptides were injected at 20 μL/min for 2 minutes using the kinject program. Following a 3 minute dissociation period, any remaining peptide was stripped from the KDR surface with a quickinject of 50 mM NaOH, 1M NaCl for 15 s at 75 μL/min. […] Sensorgrams were analyzed by global analysis using BIAevaluation software 3.1."}, "Soluble KDR receptor [3]": {"biological_target": "T2, Soluble KDR receptor", "assay": "SPR (Biacore 3000), soluble KDR on CM5 chip; column kd,1, by the text the predominant off-rate kd,2; predominant off-rate (kd,2 by the text) printed under the head kd,1", "method": "as §1"}, "Soluble KDR receptor [4]": {"biological_target": "T2, Soluble KDR receptor", "assay": "SPR (Biacore 3000), soluble KDR on CM5 chip; ka,1 (initial encounter)", "method": "as §1"}, "Soluble KDR receptor [5]": {"biological_target": "T2, Soluble KDR receptor", "assay": "SPR (Biacore 3000), soluble KDR on CM5 chip; ratio of the KD of monomer P10 to the apparent KD of the head-to-head dimer", "method": "as §1"}, "[6]": {"biological_target": "T3, KDR-Fc (chimeric fusion of Ig Fc region with human KDR, R&D Systems #357-KD-050) (human, UniProt P35968 20-764)", "T3 construct": "Bought; also called KDR Fc fusion; not shown: Ig Fc region of the bought chimera", "T3 sequence (P35968 20-764, stated change not applied)": "as the sequence (P35968 20-764 limits assumed) above", "assay": "fluorescence polarisation, monodentate peptide against KDRFc"}, "Soluble KDR receptor [7]": {"biological_target": "T2, Soluble KDR receptor", "assay": "SPR (Biacore 3000), soluble KDR on CM5 chip; ratio of the KD of monomer P9 to the apparent KD of the tail-to-tail dimer", "method": "as §1\nBy design, the interaction of a dimeric peptide with KDR is expected to proceed through two kinetic steps."}, "Soluble KDR receptor [8]": {"biological_target": "T2, Soluble KDR receptor", "assay": "Biacore", "method": "as §1"}, "Soluble KDR receptor [9]": {"biological_target": "T2, Soluble KDR receptor", "assay": "SPR (Biacore 3000), soluble KDR on CM5 chip; column kd,1, by the text the predominant off-rate kd,2", "method": "as §1"}},
  "note": "Positions of bridges follow the written chain, without caps; N, C: chain ends. Groups on a side chain read outwards from the residue. Chains are numbered I, II in the order given. No end group written: not given here. *: point of attachment. Biotin = O=C1N[C@H]2[C@H](CS[C@H]2CCCCC(=O)*)N1; fluorescein = fluorescein label on a side chain; AEEA = NCCOCCOCC(=O)O",
  "data": [
    {"binder": "B1", "values": [
      {"measurement": "Kd", "setting": "[1]", "result": 0.01, "unit": "µM"}
    ]},
    {"binder": "B2", "values": [
      {"measurement": "Kd", "setting": "Soluble KDR receptor [2]", "result": 0.00224, "unit": "µM"},
      {"measurement": "koff", "setting": "Soluble KDR receptor [3]", "result": 0.000249, "unit": "s⁻¹"},
      {"measurement": "kon", "setting": "Soluble KDR receptor [4]", "result": 111000, "unit": "M⁻¹ s⁻¹"},
      {"measurement": "fold increase in affinity over monomer P10", "setting": "Soluble KDR receptor [5]", "result": "> 560", "unit": "fold"}
    ]},
    {"binder": "AGPTWCEDDWYYCWLFGTGGGK(fluorescein)-NH2 (disulfide 6-13 (inferred))", "note": "[P12, monodentate peptide measured by FP]", "values": [
      {"measurement": "Kd", "setting": "[6]", "result": 0.003, "unit": "µM"}
    ]},
    {"binder": "B3", "values": [
      {"measurement": "fold increase in affinity over monomer P9", "setting": "Soluble KDR receptor [7]", "result": "> 60", "unit": "fold"},
      {"measurement": "Kd", "setting": "Soluble KDR receptor [2]", "result": 0.0111, "unit": "µM"},
      {"measurement": "Kd", "setting": "Soluble KDR receptor [8]", "result": 0.011, "unit": "µM"},
      {"measurement": "koff", "setting": "Soluble KDR receptor [9]", "result": 0.00128, "unit": "s⁻¹"},
      {"measurement": "kon", "setting": "Soluble KDR receptor [4]", "result": 115000, "unit": "M⁻¹ s⁻¹"}
    ]}
  ]
}
